Reference: patent US20240190987A1, “Engineered EpCam Binding Antibodies” (TigaTX, priority 2021, published 2024)
Numbering of substitutions follows the chain as printed. Numbers in names are those of the source.

Legend:
UPLC-SEC retention time = format: physicochemical; conditions: Table 13
Description: LS2B antibody clones derived from the phage display campaign were profiled by analytical UPLC-SEC using a Thermo Vanquish Flex HPLC with a MabPAC 4.6×150 mm SEC column equilibrated in 1×PBS-HCl at pH 7.0. Retention time of each clone was compared to Ab0254 to assess overall developability.
UPLC-SEC was performed on a Thermo Scientific Vanquish Flex UHPLC system. Protein was diluted to 1-5 μM in HBS buffer and then 1.5-10 μL of sample was injected onto a MabPAC 4.6×150 mm in 1×PBS-HCl at pH 7.0. Data were continuously acquired at ˜280 nm and processed on the Chromeleon 7 software (Thermo Scientific). For the low pH hold assay, prior to injection on the UHPLC, samples were held at pH 3.5 for 1 hour followed by neutralization. For the complex assembly assay, the MabPAC 4.6×150 mm column was pre-equilibrated with 1×PBS-HCl at pH 7.0 and 10 μM Indinavir.

[1] = Differential scanning fluorimetry (DSF) melting temperature; format: physicochemical
Outline: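 Purified recombinant protein (5 μM) in PBS pH 7.4 with Sypro Orange 5×, plus 10 μM VTX or 0.05% DMSO vehicle, ramped 25–95 °C at 0.01 °C/s. Fluorescence read at ~465/~580 nm; Tm taken as the maximum of the first-derivative curve.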

cynomolgus macaque PBMCs = assay: Surface staining of cyno PBMCs by flow cytometry; format: cell-based; conditions: TCRab+, CD4+ and CD8+ subsets
Description: (§1) FIG. 32 depicts Ab1070 binding to human and cynomolgus macaque PBMCs. Binding was measured by flow cytometry using a secondary fluorescent antibody (IgG-PE). T-cell subsets were identified using additional fluorescent antibodies against TCRab, CD4 and CD8 and gated prior to quantifying the median fluorescence intensity (MFI) of the IgG-PE channel. […] The assay was performed with up to 10 μM antibodies (titrated as indicated).
(§2) Peripheral blood mononuclear cells (PBMCs) from healthy cynomolgus macaques (Chinese origin) were obtained commercially (iQ Biosciences, Berkeley, CA). Peripheral blood mononuclear cells (PBMCs) from healthy human donors were isolated from leukapheresis packs (leukopaks) from deidentified healthy adult donors (StemCell Technologies, Vancouver, BC). Human PBMCs were isolated using the EasySep Direct Human PBMC Kit (StemCell Technologies) then cryopreserved in DMEM with 10% FBS and 10% DMSO. Frozen PBMC cryovials were thawed on the day of experiments and washed complete growth media (DMEM+10% FBS+1% penicillin/streptomycin). Cells were resuspended in growth media and transferred to a 96-well U-bottom plate at 55,000 cell/well. Human TruStain FcX (Fc Receptor Blocking Solution; Catalog number 422302; BioLegend, San Diego, CA) was added at a 1:20 final dilution of the manufacturer's stock and incubated for 10 minutes at room temperature in a volume of 25 μL. […]

[2] = Ab0640 pharmacokinetics in mice; format: in vivo; conditions: 6.7 mg/kg single IV, C57BL/6 mice
Description: Plasma samples were collected at 30 min, 24 hr, 72 hr, and 168 hr and concentrations of the antibodies were determined by ELISA.
Female […] mice (age 10-12 weeks) were distributed into 2 groups (n=5 per group). Antibodies were diluted in sterile PBS and injected intravenously at 6.7 mg/kg. Blood (55 μL from the retroorbital sinus) was sampled serially at 4 time points (30 min, 1 day, 3 days, 7 days), processed to plasma, diluted 1:10 in 50% glycerol+PBS, then cryopreserved. Plasma concentrations were quantified using an anti-human IgG sandwich ELISA that was developed and qualified in-house. The capture antibody for the ELISA was goat anti-human IgG (Cat. No. 2049-01; Southern Biotech, Birmingham, AL) coated on 96-well Nunc-Immuno Maxisorp plates (Thermo Fisher Scientific) at […] for 1 hr at 37° C. The detection antibody was mouse anti-human IgG Fc-HRP (Cat. No. 9042-05; Southern Biotech, Birmingham, AL) at 1:32,000 dilution of the manufacturer stock. ELISA coating, blocking, wash, and TMB substrate buffers from BioLegend were used according to the manufacturer's instructions. Non-compartmental pharmacokinetic parameters were calculated using the PKNCA package for R (doi: 10.1007/s10928-015-9432-2).

human PBMCs = assay: Surface staining of human PBMCs by flow cytometry; format: cell-based; conditions: TCRab+, CD4+ and CD8+ subsets
Description: as §1, §2

HCT-116-NR target cells = assay: Real-time TDCC by time-lapse microscopy; format: cell-based, human; conditions: 10 nM antibodies, 250 nM indinavir, 5 μM quencher, 120 hours
Description: FIG. 42 depicts real-time measurement of TDCC in a co-culture assay for three exemplary T-LITE pairs. […] T-LITE antibodies were held constant at 10 nM with indinavir (250 nM) added to some wells, as indicated (“ON”). In some wells, a conventional TCE (Ab1007) was included as a positive control. In some wells, an anti-indinavir quencher antibody (5 μM) was added at various time points, as indicated (“OFF”). […] In some wells, no indinavir was added (“Always OFF”). Killing was interrupted by the addition of the quencher at earlier time points (“OFF at” 30 min, 24 h, 44 h, or 49 h). Killing occurred at levels similar to the no-quencher condition (“Always ON”) if the quencher was added at the latest time point (68 h). The assay was performed with human T-cells and HCT-116-NR target cells for 120 hours.
The kinetics of TDCC in a co-culture assay were measured using time-lapse microscopy (FIG. 42). […] To test how T-LITE-activated T-cells respond to the removal of indinavir, an “anti-indinavir quencher” was used. […]
Co-cultures of magnetically isolated human T-cells and target cells were prepared as described above for TDCC assays, with some modifications. […] The IncuCyte software was used to quantify Normalized target cell abundance (red object area per image, normalized to T=0 h).

B1: Ab0637: LS2B; HC: V29F+M100eL+M100hL on Ab0596; parent of R4b (antibody, V domains shown)
VH: EVQLVESGGGLVQPGGSLRLSCAASGFDFSSYSIHWVRQAPGKGLEWVASISPYYGSTYYADSVKGRFTISADTSKNTAYLQMNSLRAEDTAVYYCARYYEWYKYSLYLGSLGFDYWGQGTLVTVSS
VL: DIQMTQSPSSLSASVGDRVTITCRASQSVSSAVAWYQQKPGKAPKLLIYSASSLYSGVPSRFSGSRSGTDFTLTISSLQPEDFATYYCQQGGYSLITFGQGTKVEIK
For B1, the “SEC RT” value (UPLC-SEC retention time) was 17.205 min and the “TM (° C.)” value ([1]; Table 13) was 78.3 °C.

B2: hSP34v68: humanized SP34 anti-CD3 clone v68, scFv-Fc (antibody)
heavy: EVQLVESGGGLVQPGGSLRLSCAASGFTFNTYAMNWVRQAPGKGLEWVARIRSKYNNYATYYADSVKGRFTISRDDSKSILYLQMNSLRAEDTAVYYCVRHGNFGNSYVSWFAYWGQGTLVTVSSGGGGSGGGGSGGGGSDIQVTQSPSSLSASVGDRVTITCRSSTGAVTTSNYANWVQQKPGKAFKGLIGGTNKLASGVPSRFSGSLSGDDATLTISSLQPEDFATYYCALWYSNLWVFGQGTKLEIKGGGGSDKTHTCPPCPAPEAAGGPSVFLFPPKPKDTLMISRTPEVTCVVVDVSHEDPEVKFNWYVDGVEVHNAKTKPREEQYNSTYRVVSVLTVLHQDWLNGKEYKCKVSNKALGAPIEKTISKAKGQPREPQVYTLPPSRDELTKNQVSLTCLVKGFYPSDIAVEWESNGQPENNYKTTPPVLDSDGSFFLYSKLTVDKSRWQQGNVFSCSVMHEALHNHYTQKSLSLSPGK
modifications: REGION 1..482: note = Ab0640 HC
notes: humanized SP34 anti-CD3 clone v68, scFv-Fc
With B2 the “binding to cyno PBMC T-cell subsets” value (cynomolgus macaque PBMCs) was “Detectable and saturable binding”, the “TM (° C.)” value ([1]; DSF, hSP34v68 R1 variants (Table 23)) was 60.7 °C and the half-life [2] was 112 h. For the same molecule, the “binding to human PBMC T-cell subsets” value (human PBMCs) was “Detectable and saturable binding”.

B3: Ab1007: conventional TCE positive control (antibody)
heavy 1: EVQLVQSGPGLVQPGGSVRISCAASGYTFTNYGMNWVKQAPGKGLEWMGWINTYTGESTYADSFKGRFTFSLDTSASAAYLQINSLRAEDTAVYYCARFAIKGDYWGQGTLLTVSSASTKGPSVFPLAPSSKSTSGGTAALGCLVKDYFPEPVTVSWNSGALTSGVHTFPAVLQSSGLYSLSSVVTVPSSSLGTQTYICNVNHKPSNTKVDKKVEPKSCDKTHTCPPCPAPEAAGGPSVFLFPPKPKDTLMISRTPEVTCVVVDVSHEDPEVKFNWYVDGVEVHNAKTKPREEQYNSTYRVVSVLTVLHQDWLNGKEYKCKVSNKALGAPIEKTISKAKGQPREPMVFDLPPSREEMTKNQVSLWCMVKGFYPSDIAVEWESNGQPENNYKTTPPVLDSDGSFFLYSKLTVDKSRWQQGNVFSCSVMHEALHNHYTQKSLSLSPGKHHHHHH
heavy 2: B2 heavy with S199P, S389I, D391E, E392L, L393M, K395S, T401S, L403A, Y442V
light: DIQMTQSPSSLSASVGDRVTITCRSTKSLLHSNGITYLYWYQQKPGKAPKLLIYQMSNLASGVPSRFSSSGSGTDFTLTISSLQPEDFATYYCAQNLEIPRTFGQGTKVELKRTVAAPSVFIFPPSDEQLKSGTASVVCLLNNFYPREAKVQWKVDNALQSGNSQESVTEQDSKDSTYSLSSTLTLSKADYEKHKVYACEVTHQGLSSPVTKSFNRGEC
modifications: REGION 1..452: note = Ab1007 Knob HC; REGION 1..482: note = Ab1007 Hole HC; REGION 1..219: note = Ab1007 Knob LC
notes: conventional TCE positive control
With B3 the “real-time TDCC of HCT-116-NR target cells” value (HCT-116-NR target cells) was “depleted of target cells”.
